Measured values as given in article PMC10397247.

T1: 4H1388-AA
T1 chain: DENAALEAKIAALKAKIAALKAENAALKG

T2: 4H1401-AA
T2 chain: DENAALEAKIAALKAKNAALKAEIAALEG

T3: 4H1478-AA
T3 chain: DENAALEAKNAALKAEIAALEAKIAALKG

T4: 4H1513-AA
T4 chain: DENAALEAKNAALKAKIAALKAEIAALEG

T5: 4H1594-AA
T5 chain: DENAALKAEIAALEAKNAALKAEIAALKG

T6: 4H1597-AA
T6 chain: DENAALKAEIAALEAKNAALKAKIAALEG

T7: 4H1626-AA
T7 chain: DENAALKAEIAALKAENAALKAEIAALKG

T8: 4H174-AA
T8 chain: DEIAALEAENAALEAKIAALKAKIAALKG

T9: 4H1864-AA
T9 chain: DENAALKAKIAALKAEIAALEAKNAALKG

T10: 4H1877-AA
T10 chain: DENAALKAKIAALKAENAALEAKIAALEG

T11: 4H2162-AA
T11 chain: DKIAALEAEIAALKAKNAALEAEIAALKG

T12: 4H2611-AA
T12 chain: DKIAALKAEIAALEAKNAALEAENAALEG

T13: 4H2648-AA
T13 chain: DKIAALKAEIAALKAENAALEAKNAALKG

T14: 4H2649-AA
T14 chain: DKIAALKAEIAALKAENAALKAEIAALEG

T15: 4H2725-AA
T15 chain: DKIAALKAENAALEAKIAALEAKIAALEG

T16: 4H2907-AA
T16 chain: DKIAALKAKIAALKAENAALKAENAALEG

T17: 4H3016-AA
T17 chain: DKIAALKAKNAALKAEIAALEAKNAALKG

T18: 4H3056-AA
T18 chain: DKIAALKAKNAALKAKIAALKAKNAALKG

T19: 4H3378-AA
T19 chain: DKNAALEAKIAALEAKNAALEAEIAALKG

T20: 4H340-AA
T20 chain: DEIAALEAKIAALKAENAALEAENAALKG

T21: 4H384-AA
T21 chain: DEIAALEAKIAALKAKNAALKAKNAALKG

T22: 4H629-AA
T22 chain: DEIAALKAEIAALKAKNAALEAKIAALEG


Tests used:
Test in all cases: two-hybrid library CCmax;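 also: natural log of median RNA to DNA barcode read ratio; higher means stronger binding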
Conditions in all cases: mean of both orientations
4H1388-AA = molecular target: T1, 4H1388-AA
4H1401-AA = molecular target: T2, 4H1401-AA
4H1478-AA = molecular target: T3, 4H1478-AA
4H1513-AA = molecular target: T4, 4H1513-AA
4H1594-AA = molecular target: T5, 4H1594-AA
4H1597-AA = molecular target: T6, 4H1597-AA
4H1626-AA = molecular target: T7, 4H1626-AA
4H174-AA = molecular target: T8, 4H174-AA
4H1864-AA = molecular target: T9, 4H1864-AA
4H1877-AA = molecular target: T10, 4H1877-AA
4H2162-AA = molecular target: T11, 4H2162-AA
4H2611-AA = molecular target: T12, 4H2611-AA
4H2648-AA = molecular target: T13, 4H2648-AA
4H2649-AA = molecular target: T14, 4H2649-AA
4H2725-AA = molecular target: T15, 4H2725-AA
4H2907-AA = molecular target: T16, 4H2907-AA
4H3016-AA = molecular target: T17, 4H3016-AA
4H3056-AA = molecular target: T18, 4H3056-AA
4H3378-AA = molecular target: T19, 4H3378-AA
4H340-AA = molecular target: T20, 4H340-AA
4H384-AA = molecular target: T21, 4H384-AA
4H629-AA = molecular target: T22, 4H629-AA

Row | interaction score (4H1388-AA) | interaction score (4H1401-AA) | interaction score (4H1478-AA) | interaction score (4H1513-AA) | interaction score (4H1594-AA) | interaction score (4H1597-AA) | interaction score (4H1626-AA) | interaction score (4H174-AA) | interaction score (4H1864-AA) | interaction score (4H1877-AA) | interaction score (4H2162-AA) | interaction score (4H2611-AA) | interaction score (4H2648-AA) | interaction score (4H2649-AA) | interaction score (4H2725-AA) | interaction score (4H2907-AA) | interaction score (4H3016-AA) | interaction score (4H3056-AA) | interaction score (4H3378-AA) | interaction score (4H340-AA) | Binder | other results
1 | -1.2 | 1.11 | -1.2 | -1.48 | 1.18 | 0.746 | -0.373 | 0.83 | -1.48 | 1.5 | -0.945 | -1.46 | -1.18 | 1.94 | -1.12 | 1.34 | 0.425 | -1.47 | -0.0826 | -1.45 | DENAALEAKIAALEAENAALKAKIAALKG [4H1310-AA] | interaction score (4H384-AA): -1.55; interaction score (4H629-AA): -1.49
2 | -1.65 | 0.545 | -0.804 | -1.67 | 0.842 | 0.572 | -0.818 | -0.4 | -1.38 | 1.48 | 0.00334 | -0.194 | -0.52 | 0.913 | -1.15 | -1.24 | 0.156 | -1.15 | -0.868 | -1.35 | DENAALEAEIAALKAKNAALEAKIAALKG [4H1142-AA] | interaction score (4H384-AA): -1.72; interaction score (4H629-AA): 0.124
